From publication PMC12712053

Tests used:
[1] = target: human Mre11 core (HsMre11c) (human); assay: native gel or EMSA
[2] = target: human Mre11 core (HsMre11c) (human); assay: SEC

“human Mre11 core (HsMre11c) (domain or fragment)” was tested, and the stoichiometry N [1] was 2 and the stoichiometry N [2] was 2.
